Molecular target: GST-FL-UBQLN1 (full-length wild-type human UBQLN1 GST-fusion protein) (human, UniProt Q9UMX0 1-589)
Test: pull-down

Sequence of GST-FL-UBQLN1 (full-length wild-type human UBQLN1 GST-fusion protein) (Q9UMX0 whole entry, the tested form may be a part): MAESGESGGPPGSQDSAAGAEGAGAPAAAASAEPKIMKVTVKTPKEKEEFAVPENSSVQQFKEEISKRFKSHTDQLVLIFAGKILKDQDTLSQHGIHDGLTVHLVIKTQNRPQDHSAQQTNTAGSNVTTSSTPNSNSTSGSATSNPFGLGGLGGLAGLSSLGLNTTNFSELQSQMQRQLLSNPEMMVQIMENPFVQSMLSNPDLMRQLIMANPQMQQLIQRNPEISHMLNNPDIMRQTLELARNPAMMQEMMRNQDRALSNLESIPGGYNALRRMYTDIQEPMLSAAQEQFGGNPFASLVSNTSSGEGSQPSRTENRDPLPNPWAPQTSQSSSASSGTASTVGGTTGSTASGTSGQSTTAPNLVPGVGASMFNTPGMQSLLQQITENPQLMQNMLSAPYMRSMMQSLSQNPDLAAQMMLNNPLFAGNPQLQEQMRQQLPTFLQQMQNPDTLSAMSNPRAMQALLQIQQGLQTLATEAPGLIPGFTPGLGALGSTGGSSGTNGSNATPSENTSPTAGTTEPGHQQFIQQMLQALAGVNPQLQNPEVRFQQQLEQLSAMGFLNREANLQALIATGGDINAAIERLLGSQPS

binding result: binds
B1: Full-length human S5a proteasome subunit, His-tagged (natural protein, UniProt P55036 1-377, looked up)
chain: MVLESTMVCVDNSEYMRNGDFLPTRLQAQQDAVNIVCHSKTRSNPENNVGLITLANDCEVLTTLTPDTGRILSKLHTVQPKGKITFCTGIRVAHLALKHRQGKNHKMRIIAFVGSPVEDNEKDLVKLAKRLKKEKVNVDIINFGEEEVNTEKLTAFVNTLNGKDGTGSHLVTVPPGPSLADALISSPILAGEGGAMLGLGASDFEFGVDPSADPELALALRVSMEEQRQRQEEEARRAAAASAAEAGIATTGTEDSDDALLKMTISQQEFGRTGLPDLSSMTEEEQIAYAMQMSLQGAEFGQAESADIDASSAMDTSEPAKEEDDYDVMQDPEFLQSVLENLPGVDPNNEAIRNAMGSLASQATKDGKKDKKEEDKK

From paper PMC6679980 (Biochimica et biophysica acta. General subjects, 2019)
